# Experiments:
# [1] = molecular target: JellyOp(K72T) (Carybdea rastonii)
# [2] = molecular target: JellyOp (opsin-based pigment from the box jellyfish Carybdea rastonii) (Carybdea rastonii)
# [3] = molecular target: JellyOp (opsin-based pigment from the box jellyfish Carybdea rastonii) (Carybdea rastonii); remark: listed apart in the source
# JellyOp (opsin-based pigment from the box jellyfish Carybdea rastonii) (Carybdea rastonii), sequence (B6F0Y5 entry or part of it): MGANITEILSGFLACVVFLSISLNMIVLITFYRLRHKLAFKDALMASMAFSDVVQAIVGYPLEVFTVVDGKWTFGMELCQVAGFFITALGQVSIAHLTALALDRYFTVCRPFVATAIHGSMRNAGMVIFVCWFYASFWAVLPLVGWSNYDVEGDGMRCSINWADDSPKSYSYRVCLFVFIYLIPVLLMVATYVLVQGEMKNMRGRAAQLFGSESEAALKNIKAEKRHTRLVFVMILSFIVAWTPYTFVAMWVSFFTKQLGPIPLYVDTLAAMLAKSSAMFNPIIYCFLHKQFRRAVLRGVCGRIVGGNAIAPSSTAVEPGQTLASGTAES
substance,measurement,setting,value
Gαs (from UniProt P63092 1-394) (natural protein),fast time constant of GIRK current inactivation by violet light (double-exponential decay),[1],281 ms
same,slow time constant of GIRK current inactivation by violet light (double-exponential decay),[1],8.4 s
same,time constant of onset (TauON) of the light-triggered GIRK current in cells expressing JellyOp,[2],34 ms
same,time constant of inactivation (TauOFF) of the JellyOp GIRK response by high-intensity violet light (405 nm),[3],252 ms

# — article PMC10147646
